Assay [1] deals with global O-GlcNAc level in MCF-7 cells. The experiment in a line: Immunoblot of global O-GlcNAc level and splicing in MCF-7 stable cell lines. The class given is cell-based, human. To be noted: MCF-7 cells stably expressing the variant. From the text:
In addition to serving as an activator for intein splicing, 4-HT is also known as the active metabolite of tamoxifen, an FDA-approved drug for treating breast cancer patients. Breast cancer cells also have elevated OGT expression (39) and decreased levels of OGA (40, 41), resulting in elevated O-GlcNAcylation in the proteome. OGT is usually required for tumor growth and metastasis (39), and low OGA expression is correlated with poor survival in breast cancer patients (FIG. 13). The ER positive breast cancer-derived MCF-7 cell line is sensitive to tamoxifen and 4-HT, resulting in suppression of cell proliferation, yet drug resistance occurs after long-term treatment (42). Previous studies also show evidence that upregulation of O-GlcNAcylation protects MCF-7 cells from tamoxifen-induced cell death (43). To determine if reduction of O-GlcNAc sensitized MCF-7 cells to 4-HT treatment, it was assessed whether 4-HT induced inhibition of breast cancer cell proliferation and OGA-intein activation worked synergistically to accelerate cell death (FIG. 5A). […] Next, these two cell lines were treated with 4-HT at increasing concentrations, and cell viability was measured after 48 hours. […] Given that 4-HT promoted MCF-7 cell death through apoptosis (43), the apoptosis of these cells under 4-HT treatment was further analyzed through flow cytometry analyses following Annexin V and DAPI staining. […]
A general note: In western blotting, separated proteins are transferred to a membrane and probed.

The next assay deals with Nup62. The experiment in a line: Spatial deglycosylation of cytoplasmic Nup62 by OGA-intein(C181) variants in HEK293T cells. Conditions: cytoplasmic Nup62 co-expressed. The format is cell-based. The protocol:
(§1) Next, it was assessed whether these OGA-intein(C181) variants enable selective spatial deglycosylation in live cells. As O-GlcNAc affects the subcellular localization of many proteins (37), Nup62 was used as a model cytoplasmic substrate, which was previously primarily localized in the cytoplasm when transiently overexpressed in HEK293T cells independent of the O-GlcNAcylation state (13) (FIGS. 11A, 11B). Nup62 was co-expressed with three OGA-intein(C181) variants (C181-WT, C181-NLS, and C181-NES) in HEK293T cells, and Nup62 was enriched for O-GlcNAc measurement. […] Next, Nup62 was localized to the nucleus by attachment to an NLS tag (Nup62-NLS), and a similar coexpression and 4-HT-triggered activation was performed with OGA-intein(C181) variants. […] The fluorescent intensity of OGA-intein variants also show a strong correlation to the localization of Nup62, indicating the desired subcellular distribution (FIGS. 11A-C).
(§2) Immunoprecipitation and Immunoblot assays. […]
(§3) For immunoblotting analysis, proteins were transferred to a nitrocellulose membrane using an iBlot system (Invitrogen). […] Immunoblot images were captured using Azure Imager C600 and analyzed with Fiji ImageJ for converting all IR fluorescence western blot images to grayscale images.

The test system of a further assay is Nup62-NLS. The experiment in a line: Spatial deglycosylation of nuclear Nup62-NLS by OGA-intein(C181) variants in HEK293T cells. The class given is cell-based. To be noted: nuclear Nup62-NLS co-expressed. As for the experimental part:
as §1, §2, §3

B1: C181_D174N: catalytically dead mutant (D174N) of OGA-intein(C181) (protein)
chain: MEQKLISEEDLAIAMVQKESQATLEERESELSSNPAASAGASLEPPAAPAPGEDNPAGAGGAAVAGAAGGARRFLCGVVEGFYGRPWVMEQRKELFRRLQKWELNTYLYAPKDDYKHRMFWREMYSVEEAEQLMTLISAAREYEIEFIYAISPGLDITFSNPKEVSTLKRKLDQVSQFGCRSFALLFNDIDHNMCLAEGTRIFDPVTGTTHRIEDVVDGRKPIHVVAAAKDGTLLARPVVSWFDQGTRDVIGLRIAGGAIVWATPDHKVLTEYGWRAAGELRKGDRVAGPGGSGNSLALSLTADQMVSALLDAEPPILYSEYDPTSPFSEASMMGLLTNLADRELVHMINWAKRVPGFVDLTLHDQAHLLERAWLEILMIGLVWRSMEHPGKLLFAPNLLLDRNQGKCVEGMVEIFDMLLATSSRFRMMNLQGEEFVCLKSIILLNSGVYTFLSSTLKSLEEKDHIHRALDKITDTLIHLMAKAGLTLQQQHQRLAQLLLILSHIRHMSNKGMEHLYSMKYKNVVPLYDLLLEMLDAHRLHAGGSGASRVQAFADALDDKFLHDMLAEGLRYSVIREVLPTRRARTFDLEVEELHTLVAEGVVVHNCAADKEVFSSFAHAQVSITNEIYQYLGEPETFLFCPTEYCGTFCYPNVSQSPYLRTVGEKLLPGIEVLWTGPKVVSKEIPVESIEEVSKIIKRAPVIWDNIHANDYDQKRLFLGPYKGRSTELIPRLKGVLTNPNCEFEANYVAIHTLATWYKSNMNGVRKDVVMTDSEDSTVSIQIKLENEGSDEDIETDVLYSPQMALKLALTEWLQEFGVPHQYSSRGSGSGSGSGSGSGSGEKPLYTAEPVTLEDLQLLADLFYLPYEHGPKGAQMLREFQWLRANSSVVSVNCKGKDSEKIEEWRSRAAKFEEMCGLVMGMFTRLSNCANRTILYDMYSYVWDIKSIMSMVKSFVQWLGCRSHSSAQFLIGDQEPWAFRGGLAGEFQRLLPIDGANDLFFQPP
As to B1, the “global O-GlcNAc level after adding 4-HT” value in assay [1] was “inactive form”.

B2: C181-NES: OGA-intein(C181) appended to a nuclear-export sequence (protein)
chain: MEQKLISEEDLAIAMVQKESQATLEERESELSSNPAASAGASLEPPAAPAPGEDNPAGAGGAAVAGAAGGARRFLCGVVEGFYGRPWVMEQRKELFRRLQKWELNTYLYAPKDDYKHRMFWREMYSVEEAEQLMTLISAAREYEIEFIYAISPGLDITFSNPKEVSTLKRKLDQVSQFGCRSFALLFDDIDHNMCLAEGTRIFDPVTGTTHRIEDVVDGRKPIHVVAAAKDGTLLARPVVSWFDQGTRDVIGLRIAGGAIVWATPDHKVLTEYGWRAAGELRKGDRVAGPGGSGNSLALSLTADQMVSALLDAEPPILYSEYDPTSPFSEASMMGLLTNLADRELVHMINWAKRVPGFVDLTLHDQAHLLERAWLEILMIGLVWRSMEHPGKLLFAPNLLLDRNQGKCVEGMVEIFDMLLATSSRFRMMNLQGEEFVCLKSIILLNSGVYTFLSSTLKSLEEKDHIHRALDKITDTLIHLMAKAGLTLQQQHQRLAQLLLILSHIRHMSNKGMEHLYSMKYKNVVPLYDLLLEMLDAHRLHAGGSGASRVQAFADALDDKFLHDMLAEGLRYSVIREVLPTRRARTFDLEVEELHTLVAEGVVVHNCAADKEVFSSFAHAQVSITNEIYQYLGEPETFLFCPTEYCGTFCYPNVSQSPYLRTVGEKLLPGIEVLWTGPKVVSKEIPVESIEEVSKIIKRAPVIWDNIHANDYDQKRLFLGPYKGRSTELIPRLKGVLTNPNCEFEANYVAIHTLATWYKSNMNGVRKDVVMTDSEDSTVSIQIKLENEGSDEDIETDVLYSPQMALKLALTEWLQEFGVPHQYSSRGSGSGSGSGSGSGSGEKPLYTAEPVTLEDLQLLADLFYLPYEHGPKGAQMLREFQWLRANSSVVSVNCKGKDSEKIEEWRSRAAKFEEMCGLVMGMFTRLSNCANRTILYDMYSYVWDIKSIMSMVKSFVQWLGCRSHSSAQFLIGDQEPWAFRGGLAGEFQRLLPIDGANDLFFQPPLALKLAGLDIN
As to B2, the “removal of O-GlcNAc from Nup62 after 4-HT-triggered activation” value with Nup62 is “removed O-GlcNAc from Nup62”.

B3: C181-NLS: OGA-intein(C181) appended to a nuclear-localization sequence (protein)
chain: MEQKLISEEDLAIAMVQKESQATLEERESELSSNPAASAGASLEPPAAPAPGEDNPAGAGGAAVAGAAGGARRFLCGVVEGFYGRPWVMEQRKELFRRLQKWELNTYLYAPKDDYKHRMFWREMYSVEEAEQLMTLISAAREYEIEFIYAISPGLDITFSNPKEVSTLKRKLDQVSQFGCRSFALLFDDIDHNMCLAEGTRIFDPVTGTTHRIEDVVDGRKPIHVVAAAKDGTLLARPVVSWFDQGTRDVIGLRIAGGAIVWATPDHKVLTEYGWRAAGELRKGDRVAGPGGSGNSLALSLTADQMVSALLDAEPPILYSEYDPTSPFSEASMMGLLTNLADRELVHMINWAKRVPGFVDLTLHDQAHLLERAWLEILMIGLVWRSMEHPGKLLFAPNLLLDRNQGKCVEGMVEIFDMLLATSSRFRMMNLQGEEFVCLKSIILLNSGVYTFLSSTLKSLEEKDHIHRALDKITDTLIHLMAKAGLTLQQQHQRLAQLLLILSHIRHMSNKGMEHLYSMKYKNVVPLYDLLLEMLDAHRLHAGGSGASRVQAFADALDDKFLHDMLAEGLRYSVIREVLPTRRARTFDLEVEELHTLVAEGVVVHNCAADKEVFSSFAHAQVSITNEIYQYLGEPETFLFCPTEYCGTFCYPNVSQSPYLRTVGEKLLPGIEVLWTGPKVVSKEIPVESIEEVSKIIKRAPVIWDNIHANDYDQKRLFLGPYKGRSTELIPRLKGVLTNPNCEFEANYVAIHTLATWYKSNMNGVRKDVVMTDSEDSTVSIQIKLENEGSDEDIETDVLYSPQMALKLALTEWLQEFGVPHQYSSRGSGSGSGSGSGSGSGEKPLYTAEPVTLEDLQLLADLFYLPYEHGPKGAQMLREFQWLRANSSVVSVNCKGKDSEKIEEWRSRAAKFEEMCGLVMGMFTRLSNCANRTILYDMYSYVWDIKSIMSMVKSFVQWLGCRSHSSAQFLIGDQEPWAFRGGLAGEFQRLLPIDGANDLFFQPPKRPAATKKAGQAKKKK
B3: the “4-HT-induced deglycosylation of Nup62-NLS” value with Nup62-NLS is 4-HT-induced deglycosylation.

For the origin of these results see patent publication US20240209334A1, “SMALL-MOLECULE-ACTIVATED GLYCAN MODIFYING ENZYMES AND USES THEREOF” (President and Fellows of Harvard College, priority 2022, published 2024).
